tested on: Escherichia coli TOP10; experiment: shrunken log2 fold change of peptide-encoding DNA abundance (4.5 h post-induction vs induction); higher = less antimicrobial activity (less host growth inhibition); details: time post-induction: 4.5 h; library: site-saturation at positions 5, 18, 19, 20
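Also: peptides expressed intracellularly from a pBAD plasmid library in pooled LB shake-flask culture, induced with 0.3% L-arabinose, DNA abundance read by NGS, three biological replicates, DESeq2 with apeglm shrinkage.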

Sequence	shrunken log2 fold change
RRIRGRPPRLPRPRPRPHEHPRP	1.13
RRIRTRPPRLPRPRPRPISLPRP	-0.0795
RRIRYRPPRLPRPRPRPEETPRP	-0.119
RRIRLRPPRLPRPRPRPSIPPRP	-0.711
RRIRTRPPRLPRPRPRPCIEPRP	-0.183
RRIRGRPPRLPRPRPRPAYKPRP	-0.202
RRIRQRPPRLPRPRPRPSCQPRP	-0.834
RRIRMRPPRLPRPRPRPCRRPRP	0.0172
RRIRYRPPRLPRPRPRPPAMPRP	-0.35
RRIRHRPPRLPRPRPRPPASPRP	1.36
RRIRNRPPRLPRPRPRPWASPRP	0.00581
RRIRKRPPRLPRPRPRPWEKPRP	-0.00969
RRIRGRPPRLPRPRPRPYDFPRP	-0.0968
RRIRHRPPRLPRPRPRPIYVPRP	-0.0627
RRIRCRPPRLPRPRPRPKVWPRP	0.261
RRIRGRPPRLPRPRPRPLYRPRP	1.11
RRIRGRPPRLPRPRPRPCWSPRP	0.144
RRIRKRPPRLPRPRPRPRQFPRP	0.192
RRIRMRPPRLPRPRPRPIYYPRP	-0.51
RRIRFRPPRLPRPRPRPDDRPRP	0.00835
RRIRKRPPRLPRPRPRPVWEPRP	0.391
RRIRRRPPRLPRPRPRPKVIPRP	-0.256
RRIRSRPPRLPRPRPRPRFDPRP	0.248
RRIRFRPPRLPRPRPRPHQWPRP	-0.0612
RRIRIRPPRLPRPRPRPYWYPRP	-0.0124

Sequence	shrunken log2 fold change
RRIRSRPPRLPRPRPRPRSPPRP	0.363
RRIRNRPPRLPRPRPRPRDAPRP	-0.163
RRIRCRPPRLPRPRPRPNDQPRP	0.0359
RRIRIRPPRLPRPRPRPACLPRP	-0.228
RRIRLRPPRLPRPRPRPVWWPRP	0.88
RRIRTRPPRLPRPRPRPYIDPRP	-0.132
RRIRRRPPRLPRPRPRPPWRPRP	0.757
RRIRNRPPRLPRPRPRPEHRPRP	-0.226
RRIRMRPPRLPRPRPRPWVTPRP	-0.15
RRIRDRPPRLPRPRPRPDQKPRP	-0.0052
RRIRGRPPRLPRPRPRPTVLPRP	0.564
RRIRWRPPRLPRPRPRPGWQPRP	0.0857
RRIRARPPRLPRPRPRPADLPRP	0.729
RRIRARPPRLPRPRPRPLPLPRP	0.186
RRIRTRPPRLPRPRPRPWREPRP	-0.00743
RRIRMRPPRLPRPRPRPDYWPRP	0.441
RRIRWRPPRLPRPRPRPWCGPRP	0.273
RRIRHRPPRLPRPRPRPGLLPRP	-0.0335
RRIRSRPPRLPRPRPRPLNVPRP	-0.0872
RRIRTRPPRLPRPRPRPTELPRP	-0.0329
RRIRKRPPRLPRPRPRPGCDPRP	0.826
RRIRKRPPRLPRPRPRPVIYPRP	-0.0353
RRIRFRPPRLPRPRPRPWADPRP	-0.168
RRIRRRPPRLPRPRPRPREWPRP	1.03
RRIRNRPPRLPRPRPRPEVMPRP	0.0307

Sequence	shrunken log2 fold change
RRIRARPPRLPRPRPRPTRRPRP	1.1
RRIRDRPPRLPRPRPRPCRWPRP	-0.537
RRIRARPPRLPRPRPRPVNHPRP	-0.298
RRIRQRPPRLPRPRPRPKQDPRP	0.0446
RRIRFRPPRLPRPRPRPICHPRP	-0.351
RRIRFRPPRLPRPRPRPRYLPRP	-0.0779
RRIRHRPPRLPRPRPRPYYSPRP	-0.191
RRIRIRPPRLPRPRPRPTCSPRP	-0.371
RRIRRRPPRLPRPRPRPSDRPRP	-0.153
RRIRVRPPRLPRPRPRPNIVPRP	0.000276
RRIRKRPPRLPRPRPRPFGAPRP	0.45
RRIRHRPPRLPRPRPRPYYAPRP	-0.417
RRIRCRPPRLPRPRPRPSHAPRP	-0.375
RRIRDRPPRLPRPRPRPPCPPRP	0.173
RRIRCRPPRLPRPRPRPDEFPRP	-0.169
RRIRMRPPRLPRPRPRPLQAPRP	2.15
RRIRIRPPRLPRPRPRPIWMPRP	-0.176
RRIRHRPPRLPRPRPRPNYQPRP	-0.28
RRIRSRPPRLPRPRPRPVPQPRP	0.0741
RRIRPRPPRLPRPRPRPFIYPRP	-0.0739
RRIRDRPPRLPRPRPRPRHYPRP	0.0264
RRIRTRPPRLPRPRPRPINYPRP	-0.502
RRIRHRPPRLPRPRPRPFHNPRP	-0.305
RRIRGRPPRLPRPRPRPRVQPRP	0.218
RRIRHRPPRLPRPRPRPRLAPRP	0.206
